Reference: patent publication US7993648

Biological target: CD70 (UniProt O55237)
Assay: cell-based or functional assay

Chain of UniProt O55237 (O55237 whole entry): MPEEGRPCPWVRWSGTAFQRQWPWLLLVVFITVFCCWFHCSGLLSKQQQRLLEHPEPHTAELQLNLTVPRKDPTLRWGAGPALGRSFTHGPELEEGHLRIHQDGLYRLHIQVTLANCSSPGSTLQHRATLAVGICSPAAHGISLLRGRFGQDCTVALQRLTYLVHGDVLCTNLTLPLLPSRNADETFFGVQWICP

For anti-CD70 blocking antibody FR70, which CD8+ T cell response (tetramer staining of day 7 PBLs) in CD4-depleted IFNαβR KO mice is on record?
The CD8+ T cell response (tetramer staining of day 7 PBLs) in CD4-depleted IFNαβR KO mice was 10 fold.
